Common to all, as to type: cell-based
One experiment relates to A549 ALK+ cells. Put plainly: MTT viability and bright field microscopy of A549 ALK+ cells with CER T cells and ALK inhibitor. To be noted: for in vitro growth/viability of A549 ALK+ cells (MTT): Alectinib or Crizotinib 250 nM-10 μM, E:T 2:1 and 5:1. An excerpt: An […] translocation was introduced into A549 cells. […] CER104 has a polypeptide sequence set forth in SEQ ID NO:133 and comprises a Tim4 binding domain, Tim4 transmembrane domain, and an engulfment signaling domain comprising a primary engulfment signaling domain comprising a TLR8 signaling domain and a secondary engulfment signaling domain comprising a DAP12 signaling domain. CER122 has a polypeptide sequence set forth in SEQ ID NO:149 and comprises a Tim4 binding domain, Tim4 transmembrane domain, and an engulfment signaling domain comprising a primary engulfment signaling domain comprising a TLR2 signaling domain and a secondary engulfment signaling domain comprising a DAP12 signaling domain. Effector:target (E:T) cell ratio for co-culture was 2:1 or 5:1. […] Cell viability experiments were performed in triplicates and presented as % of control. Best-fit curves were generated from raw data using linear regression models.
CER21−, CER108−, CER104−, and CER129-transduced CD4+ T cells were tested for their ability to kill A549 ALK+ cells in the presence of ALK inhibitor. CD4+ T cells were transduced with a lentiviral vector comprising a CER21, CER108, CER104, CER129, CER27, CER120, CER122, CER123, CER124, or CER126 nucleic acid. […] After 48 hours of co-culture, T cells were washed away and the number of viable A549 ALK+ cells was quantified using a calorimetric MTT assay (FIGS. 67A-B). Cell viability experiments were performed in triplicates and presented as % of control. Bright field microscopy images were also obtained from A549 ALK+co-culture experiments. […] Arrow indicates cluster of dead A549 ALK+ cells surrounded by phagocytic CER104+ T cells. […]

Experiment [1] deals with H1975 lung adenocarcinoma cells. Kind of experiment: LDH assay, H1975 cells, 48 hours co-culture with 1 μM Osimeritinib. To be noted: E:T 1:1, 48 hours, CD4+ T cells. The gist of the method:
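H1975 EGFR-mutant cells were co-cultured 48 h with CER-expressing or mock-transduced CD4+ T cells at 1:1 effector:target, plus 1 μM osimertinib. After T cells were washed away, viable H1975 cells were quantified by colorimetric LDH assay in triplicate, expressed as % of control.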

The next experiment deals with ALK+A549 cells. Put plainly: Phagocytosis of ALK inhibitor treated A549 ALK+ cells by CER T cells (fluorescent microscopy). From the text:
An ELM4-ALK translocation was introduced into A549 cells. […] CD4 T cells are modified to express CER104 or CER117 and labeled with CELLTRACE Violet. CER117 has a polypeptide sequence set forth in SEQ ID NO:144 and comprises a Tim4 binding domain, a Tim4 transmembrane domain, and an engulfment signaling domain comprising a primary engulfment signaling domain comprising a TLR8 signaling domain and a secondary engulfment signaling domain comprising a TRAF6 signaling domain. The ALK+A549 cells were then co-cultured with CER104- or CER117-expressing CD4+ T cells or Mock-transduced (vector only) T cells for 12 hours and images were obtained by fluorescent microscopy at 40× magnification (FIGS. 62A-E). White arrows indicate exemplary phagocytic events (pH rodo red cell targets within CELLTRACE Violet labeled CD4+ T cells).
CER123- and CER126-transduced CD4+ and CD8+ T cells were labeled with CELLTRACE Violet and co-cultured with the A549 ALK-positive cells. Co-cultured cells were imaged by fluorescent microscopy at 63× magnification after 12 hours (FIGS. 63A-F). White arrows indicate exemplary phagocytic events (pHrodo red targets within CELLTRACE Violet-labeled CD4 T cells).
Phagocytosis of Alectinib-treated ALK+A549 cells by CER-expressing T cells was also quantified. […] Bar graph in FIG. 64A represents quantification of percentage phagocytosis calculated as ((number of phagocytic target events)/(total number of effector cells))*100. Events were calculated from fluorescent 3×3 stitched images at 40×resolution after 12 hours of co-culture. Bar graph in FIG. 64B represents quantification of adjusted phagocytic index calculated as (median area ratio of target events in effector cells*phagocytosis). Events calculated from fluorescent 3×3 stitched images at 40×resolution after 12 hours of co-culture.
CER21−, CER27−, CER30−, CER108−, CER110−, CER112−, CER120−, CER123−, CER124−, CER126−, CER127−, or CER104-transduced CD4+ T cells were co-cultured with Alectinib-treated A549 cells at a 1:1 ratio for 12 hours. Phagocytic events were calculated from 3×3 stitched fluorescent microscopy images at 40X resolution. […] Images were obtained after 12 hours of co-culture. Yellow triangles indicate exemplary phagocytic events (pHrodo red targets within CELLTRACE violet labeled CD4+ T cells).
A time course study of phagocytic uptake of tumor cells by CER-transduced T cells was performed. CD4+ T cells were transduced with a lentiviral vector comprising CER122 nucleic acid. Mock-transduced (vector only) CD4+ T cells were used as control. CER122-transduced T cells were labeled with CELLTRACE violet and co-cultured with pHrodo red labeled A549 ALK+ lung adenocarcinoma cells. Fluorescent microscopy images were obtained at 4, 8, and 16 hours co-culture (FIG. 72C), and % phagocytosis (FIG. 72A) and phagocytic index (FIG. 72B) were calculated.

B1: CER122: Tim4 binding and transmembrane domains, TLR2 primary and DAP12 secondary signaling domains; SEQ ID NO:149 (protein)
chain: MSKGLLLLWLVTELWWLYLTPAASEDTIIGFLGQPVTLPCHYLSWSQSRNSMCWGKGSCPNSKCNAELLRTDGTRIISRKSTKYTLLGKVQFGEVSLTISNTNRGDSGVYCCRIEVPGWFNDVKKNVRLELRRATTTKKPTTTTRPTTTPYVTTTTPELLPTTVMTTSVLPTTTPPQTLATTAFSTAVTTCPSTTPGSFSQETTKGSAFTTESETLPASNHSQRSMMTISTDIAVLRPTGSNPGILPSTSQLTTQKTTLTTSESLQKTTKSHQINSRQTILIIACCVGFVLMVLLFLAFLHRFHGLWYMKMMWAWLQAKRKPRKAPSRNICYDAFVSYSERDAYWVENLMVQELENFNPPFKLCLHKRDFIPGKWIIDNIIDSIEKSHKTVFVLSENFVKSEWCKYELDFSHFRLFDENNDAAILILLEPIEKKAIPQRFCKLRKIMNTKTYLEWPMDEAQREGFWVNLRAAIKSYFLGRLVPRGRGAAEAATRKQRITETESPYQELQGQRSDVYSDLNTQRPYYK
modifications: CER122 protein
With B1, the “in vitro growth/viability of A549 ALK+ cells (MTT)” value in the experiment on A549 ALK+ cells (48 hours) and in the experiment on A549 ALK+ cells (72 hours) was “synergistically suppress in vitro growth of NSCLC cells harboring ALK rearrangements” each time. Moreover, in experiment [1], the “killing of H1975 cells (LDH)” value is “synergistic killing of H1975 lung adenocarcinoma cells upon EGFR inhibition”. Besides, the “phagocytic uptake of A549 ALK+ cells, time course” value with ALK+A549 cells (CD4+ T cells, 4, 8, and 16 hours co-culture) was “phagocytic events by CER122-transduced T cells”.

B2: CER126: Tim4 binding and transmembrane domains, TLR2 primary and TRAF2 secondary signaling domains; SEQ ID NO:174 (protein)
chain: MSKGLLLLWLVTELWWLYLTPAASEDTIIGFLGQPVTLPCHYLSWSQSRNSMCWGKGSCPNSKCNAELLRTDGTRIISRKSTKYTLLGKVQFGEVSLTISNTNRGDSGVYCCRIEVPGWFNDVKKNVRLELRRATTTKKPTTTTRPTTTPYVTTTTPELLPTTVMTTSVLPTTTPPQTLATTAFSTAVTTCPSTTPGSFSQETTKGSAFTTESETLPASNHSQRSMMTISTDIAVLRPTGSNPGILPSTSQLTTQKTTLTTSESLQKTTKSHQINSRQTILIIACCVGFVLMVLLFLAFLHRFHGLWYMKMMWAWLQAKRKPRKAPSRNICYDAFVSYSERDAYWVENLMVQELENFNPPFKLCLHKRDFIPGKWIIDNIIDSIEKSHKTVFVLSENFVKSEWCKYELDFSHFRLFDENNDAAILILLEPIEKKAIPQRFCKLRKIMNTKTYLEWPMDEAQREGFWVNLRAAIKSMAAASVTPPGSLELLQPGFSKTLLGTKLEAKYLCSACRNVLRRPFQAQCGHRYCSFCLASILSSGPQNCAACVHEGIYEEGISILESSSAFPDNAARREVESLPAVCPSDGCTWKGTLKEYESCHEGRCPLMLTECPACKGLVRLGEKERHLEHECPERSLSCRHCRAPCCGADVKAHHEVCPKFPLTCDGCGKKKIPREKFQDHVKTCGKCRVPCRFHAIGCLETVEGEKQQEHEVQWLREHLAMLLSSVLEAKPLLGDQSHAGSELLQRCESLEKKTATFENIVCVLNREVERVAMTAEAC
modifications: CER126 protein
Regarding B2, the “bright field microscopy of A549 ALK+ co-culture” value with A549 ALK+ cells (Alectinib 3.7 μM, 48 hours, vs mock-transduced T cells) is “cluster of dead A549 ALK+ cells surrounded by phagocytic CER126^+ T cells”. In addition, in experiment [1], the “killing of H1975 cells (LDH)” value is given as “synergistic killing of H1975 lung adenocarcinoma cells upon EGFR inhibition”. Further, the “phagocytic elimination of ALK+A549 cells” value with ALK+A549 cells (2.5 μM Alectinib, 12 hours) is given as “phagocytic elimination of ALK+A549 cells”.

(Values after patent US11708423B2, “Chimeric engulfment receptor molecules and methods of use” (CERO THERAPEUTICS, INC., priority 2017, dated 2023).)
